Earlier results on two molecules are cited in US20260345619A1 (Principia Biopharma Inc., priority 2023, published 2026).

The conditions of the series: for efficacy: severe asthma, eosinophilic phenotype.

B1: mepolizumab: anti-interleukin (IL)-5 agent (antibody, chains of the INN, looked up, V domains shown)
VH: QVTLRESGPALVKPTQTLTLTCTVSGFSLTSYSVHWVRQPPGKGLEWLGVIWASGGTDYNSALMSRLSISKDTSRNQVVLTMTNMDPVDTATYYCARDPPSSLLRLDYWGRGTPVTVSS
VL: DIVMTQSPDSLAVSLGERATINCKSSQSLLNSGNQKNYLAWYQQKPGQPPKLLIYGASTRESGVPDRFSGSGSGTDFTLTISSLQAEDVAVYYCQNVHSFPFTFGGGTKLEIK
Take B1: the efficacy entry is recorded as “have shown efficacy”. The “patients with no decrease in oral corticosteroid (OCS) dose or lack of asthma control” value (high eosinophilic group (Bel E H et al., 2014)) was 36%.

B2: reslizumab: anti-interleukin (IL)-5 agent (antibody, chains of the INN, looked up, V domains shown)
VH: EVQLVESGGGLVQPGGSLRLSCAVSGLSLTSNSVNWIRQAPGKGLEWVGLIWSNGDTDYNSAIKSRFTISRDTSKSTVYLQMNSLRAEDTAVYYCAREYYGYFDYWGQGTLVTVSS
VL: DIQMTQSPSSLSASVGDRVTITCLASEGISSYLAWYQQKPGKAPKLLIYGANSLQTGVPSRFSGSGSATDYTLTISSLQPEDFATYYCQQSYKFPNTFGQGTKVEVK
As to B2, the efficacy entry was “have shown efficacy”.
